This passage reports Optical density (OD) results from patent publication EP2727942A1.

Assay [1] addresses recombinant Fc chimeric conjugate of human EGFR (human) (UniProt P00533). In words: ELISA, coated antigen, B-cell supernatant, IgG 1143,3 ng/ml. Background: ELISA stands for enzyme-linked immunosorbent assay.
Assay [2] has as its target recombinant Fc chimeric conjugate of human HER2 (human) (UniProt P04626). The assay is described as above.
Assay [3] has as its target recombinant Fc chimeric conjugate of human EGFR (human) (UniProt P00533). In words: ELISA, coated antigen, B-cell supernatant, IgG 250,4 ng/ml.
The target in assay [4] is recombinant Fc chimeric conjugate of human HER3 (human) (UniProt P21860). Described as above.
Sequence of UniProt P21860 (P21860 20-643, change not shown): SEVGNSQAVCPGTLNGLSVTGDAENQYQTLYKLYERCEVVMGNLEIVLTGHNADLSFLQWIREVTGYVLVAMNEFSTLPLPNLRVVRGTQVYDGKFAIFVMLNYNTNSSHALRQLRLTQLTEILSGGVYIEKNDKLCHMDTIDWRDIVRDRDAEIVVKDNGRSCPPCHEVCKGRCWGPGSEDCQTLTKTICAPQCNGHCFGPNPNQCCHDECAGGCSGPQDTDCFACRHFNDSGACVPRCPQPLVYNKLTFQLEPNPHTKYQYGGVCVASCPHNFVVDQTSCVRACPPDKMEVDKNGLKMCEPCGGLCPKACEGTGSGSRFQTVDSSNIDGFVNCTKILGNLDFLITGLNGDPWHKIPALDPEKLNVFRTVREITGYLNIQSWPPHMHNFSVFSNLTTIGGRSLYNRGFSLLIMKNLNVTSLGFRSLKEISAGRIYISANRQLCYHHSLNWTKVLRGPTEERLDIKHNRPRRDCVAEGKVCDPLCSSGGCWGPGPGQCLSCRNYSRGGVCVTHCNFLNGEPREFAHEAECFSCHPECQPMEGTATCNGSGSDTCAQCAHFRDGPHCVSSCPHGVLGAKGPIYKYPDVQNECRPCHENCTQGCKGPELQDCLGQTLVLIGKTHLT
Assay [5] deals with recombinant Fc chimeric conjugate of human EGFR (human) (UniProt P00533). In words: ELISA, coated antigen, B-cell supernatant, IgG 1912,4 ng/ml.
Assay [6] has as its target recombinant Fc chimeric conjugate of human HER2 (human) (UniProt P04626). Described as above.
In assay [7] the target is recombinant Fc chimeric conjugate of human EGFR (human) (UniProt P00533). In words: ELISA, coated antigen, B-cell supernatant, IgG 1170,2 ng/ml.
In assay [8] the target is recombinant Fc chimeric conjugate of human HER3 (human) (UniProt P21860). The assay is described as above.
Assay [9] deals with recombinant Fc chimeric conjugate of human EGFR (human) (UniProt P00533). In words: ELISA, coated antigen, B-cell supernatant, IgG 146,1 ng/ml.
Assay [10] concerns the target recombinant Fc chimeric conjugate of human HER3 (human) (UniProt P21860). The description is as above.
The target of assay [11] is recombinant Fc chimeric conjugate of human EGFR (human) (UniProt P00533). In words: ELISA, coated antigen, B-cell supernatant, IgG 565,3 ng/ml.
In assay [12] the target is recombinant Fc chimeric conjugate of human HER3 (human) (UniProt P21860). The assay is described as above.
Assay [13] deals with recombinant Fc chimeric conjugate of human EGFR (human) (UniProt P00533). In words: ELISA, coated antigen, B-cell supernatant, IgG 59,9 ng/ml.
Assay [14] has as its target recombinant Fc chimeric conjugate of human HER3 (human) (UniProt P21860). Described as above.

B1: Antibody 34 (antibody, V domains shown)
VH: QEQLVESGGGLVQPEGSLTLTCKASGFSFSSGYYMCWVRQAPGKGLEWIACIYADSSESTYYASWAKGRFTISKTSSTTVTLQVTSLTAADTATYFCARWGTVAGYSTFNLWGPGTLVTVSS
VL: DVVMTQTPASVSEPVGGTVTIKCQASQSISTALAWYQQKPGQPPKLLIYFTSTLASGVSSRFKGSGSGAEFTLTISDLECADAATYYCQGYYYVTNFPFGGGTEVVVK
B1: the Optical density (OD) in assay [1] amounted to 0.3 OD; in assay [2] it was 3.1 OD.

B2: Antibody 55 (antibody, V domains shown)
VH: QSLEESGGRLVTPGGSLTLTCTVSGSDISSYDMSWVRQAPGKGLEWIGYIWSGTTIYYASWPKGRFTISKTSSTTVDLKMTSLTTEDTATYFCAAINIYTYVYSLWGPGTLVTVSS
VL: AYDMTQTPASVEAAVGGTVTIKCQASESIYSSLAWYQQKSGQPPKLLIYLASTLASGVPSRFKGSGSGTDYTLTISGVECADAATYYCQQHYSGSNVDNAFGGGTEVVVK
On to B2, for which the Optical density (OD) in [3] was 2.7 OD; in assay [4] it was 3.3 OD.

B3: Antibody 6 (antibody, V domains shown)
VH: QSVEESGGRLVTPGTPLTLTCTVSGFSLSSYTMGWVRQAPGKGLEYIGIINTGGYTYYASWAKGRFTISRTSTTVDLSMTSLTTEDTATYFCARVYPGSSCDLWGQGTLVTVSS
VL: DVVMTQTPASVSEPVGGTVTIKCQASQSISSSYLSWYQQKPGQPPKLLIYRASTLESGVPSRFKGSGSGTEFTLTISDLECADAATYYCQCTDYAGSYVGGAFGGGTEVVVK
Regarding B3, the Optical density (OD) in [5] came out at 0.4 OD; in [6], 3.2 OD.

B4: Antibody 32 (antibody, V domains shown)
VH: QSVEESGGRLVTPGTPLTLTCTVSGFSLSSYDMSWVRQAPGKGLEWIGFIDGDSNTYDATWAKGRFTISKTSTTVDLKITSPTTEDTATYFCTRGFNLWGQGTLVTVSS
VL: DVVMTQTPASVSEPVGGTVTIKCQASQSISSYLAWYQQKPGQPPKLLIYKASTLASGVSSRFKGSGSGTEFTLTISDLECADAATYYCQCSAGGRSGIGGFGGGTEVVVK
As to B4, the Optical density (OD) in [7] came to 0.3 OD; in [8], 2.3 OD.

B5: Antibody 52 (antibody, V domains shown)
VH: QSVEESGGRLVTPGTALTLTCTVSGFSLSSGDMSWVRQAPGKGLEWIGYIWSGVSTYYANWAKGRFTISKTSSTTVDLKMTSLTIEDTATYFCARVDFYSYVYSLWGPGTLVTVSS
VL: ALVMTQTPASVEAAVGGTVTIKCQASQSISSCLAWYQQKPGQPPKLLIYSASTLASGVPSRFKGSGSGTEYTLTISGVECADAATYYCQQHYTSNNIDNAFGGGTEVVVK
For the molecule B5, the values for the Optical density (OD) in [9] and in assay [10] were 2.7 OD and 2.1 OD, respectively.

B6: Antibody 56 (antibody, V domains shown)
VH: QSLEESGGRLVTPGTPLTLTCTASGFSLSSYDLSWVRQAPGKGLEWIAYIWSGDKTYYANWAKGRFTISKTSSTTVDLKMTSLTTEDTATYFCATVNIYSYVYSLWGPGTLVTVSS
VL: AYDMTQTPASVEVAVGGTVTIKCQASQSISTALAWYQQKSGQPPKLLIYLASTLASGVPSRFKGSGSGTEYTLTISGVECADAATYYCQQHYSSNNVDNAFGGGTEVVVK
As for B6, the values for the Optical density (OD) in assay [11] and in assay [12] were 3.4 OD and 3.1 OD, respectively.

B7: Antibody 60 (antibody, V domains shown)
VH: QSLEESGGRLVTPGGSLTLTCTVSGSDISSYDMSWVRQAPGKGLEWIGYIWSGTTTYYANWAKGRFTISKTSSTTVDLKMTSLTTEDTATYFCATVNIYTYVYSLWGPGTLVTVSS
VL: AYDMTQTPASVEVAVGGTVTIKCQASQSISTALAWYQQKSGQPPKLLIYLASTLASGVPSRFKGSGSGTEYTLTISGVECADAATYYCQQHYSGNNVDNAFGGGTEVVVK
Turning to B7, the Optical density (OD) in [13] worked out at 2.8 OD; in assay [14], 1 OD.
